The results in this text go back to paper PMC6297234, “aPKC controls endothelial growth by modulating c-Myc via FoxO1 DNA-binding ability”.

The series addresses GST-FoxO1 DBD S218D (Homo sapiens, UniProt Q12778 151-266, S218D). The series is described as follows: EMSA; 1 µM protein, 1 nM DNA, 1 ng/mL poly dI-dC; 20 mM Tris pH 8.0, 50 mM KCl, 5% glycerol, 2 mM DTT, 0.2 mM EDTA, 2 mM MgCl2, 0.1 mg/mL BSA, 1 ng/mL poly dI-dC; RT 30 min; 6% gel in 0.5X TBE at 4 °C. Particulars: protein: recombinant; tags: GST (pDEST15, N-terminal); blunt.

Chain of GST-FoxO1 DBD S218D (Q12778 151-266 S218D): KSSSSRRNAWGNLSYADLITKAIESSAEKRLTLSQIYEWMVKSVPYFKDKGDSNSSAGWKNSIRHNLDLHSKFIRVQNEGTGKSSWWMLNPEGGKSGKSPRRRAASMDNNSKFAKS

B1: FoxO DBE duplex (dsDNA)
DNA 1: CAAAATGTAAACAAGA
DNA 2: TCTTGTTTACATTTTG
In the case of B1, the binding result is “no binding”.
